The results in this text go back to PMC12583452, “MCM5 UFMylation regulates replication origin firing and fork progression” (The EMBO Journal, 2025).

Positions count from the first letter of the chain named.

The target of one assay is T1, His-UFL1 (UniProt O94874 1-794).
T1 construct: UFL1; construct pet28a-UFL1; also called pet28a-UFL1; source: E. coli BL21, purified (Ni-NTA agarose)
T1 sequence (looked up): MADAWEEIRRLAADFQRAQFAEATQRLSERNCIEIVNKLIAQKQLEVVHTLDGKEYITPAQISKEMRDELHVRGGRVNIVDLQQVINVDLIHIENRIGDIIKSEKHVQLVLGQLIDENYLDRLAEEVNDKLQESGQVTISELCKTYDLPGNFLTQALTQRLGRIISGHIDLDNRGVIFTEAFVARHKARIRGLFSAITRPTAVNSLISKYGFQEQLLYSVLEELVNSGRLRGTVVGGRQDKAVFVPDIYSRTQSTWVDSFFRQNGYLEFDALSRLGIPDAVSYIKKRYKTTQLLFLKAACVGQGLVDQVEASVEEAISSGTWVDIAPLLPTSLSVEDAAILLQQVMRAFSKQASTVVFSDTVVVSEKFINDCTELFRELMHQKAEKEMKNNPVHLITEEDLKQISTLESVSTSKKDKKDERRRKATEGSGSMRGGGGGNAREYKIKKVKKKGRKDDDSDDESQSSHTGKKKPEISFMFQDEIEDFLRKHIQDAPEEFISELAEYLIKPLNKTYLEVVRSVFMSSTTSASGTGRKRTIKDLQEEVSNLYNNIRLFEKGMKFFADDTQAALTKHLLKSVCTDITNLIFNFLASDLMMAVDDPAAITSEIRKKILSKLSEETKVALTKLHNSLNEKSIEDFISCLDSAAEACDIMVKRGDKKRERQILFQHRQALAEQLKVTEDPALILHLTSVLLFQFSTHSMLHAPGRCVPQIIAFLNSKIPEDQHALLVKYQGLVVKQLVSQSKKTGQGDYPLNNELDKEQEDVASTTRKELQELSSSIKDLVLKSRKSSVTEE
As to the kind of experiment: pull-down; GST pull-down in vitro with purified GST-MCM5 and His-UFL1; bead-associated proteins analysed by western blot. The conditions noted are these: both partners purified. On the technique in general: In western blotting, separated proteins are transferred to a membrane and probed.

Assay [1] has as its target T2, FLAG-MCM5 (K583R), expressed in HeLa cells (human, UniProt P33992 1-734, K583R).
T2 construct: human MCM5, full-length cDNA in a pcDNA3.0 3XFLAG vector, point mutation K583R (UFMylation-resistant); also called KR; Lys583Arg; source: HeLa, transfected; in fixed cells (PLA) and in the chromatin fraction (IP)
T2 sequence (looked up): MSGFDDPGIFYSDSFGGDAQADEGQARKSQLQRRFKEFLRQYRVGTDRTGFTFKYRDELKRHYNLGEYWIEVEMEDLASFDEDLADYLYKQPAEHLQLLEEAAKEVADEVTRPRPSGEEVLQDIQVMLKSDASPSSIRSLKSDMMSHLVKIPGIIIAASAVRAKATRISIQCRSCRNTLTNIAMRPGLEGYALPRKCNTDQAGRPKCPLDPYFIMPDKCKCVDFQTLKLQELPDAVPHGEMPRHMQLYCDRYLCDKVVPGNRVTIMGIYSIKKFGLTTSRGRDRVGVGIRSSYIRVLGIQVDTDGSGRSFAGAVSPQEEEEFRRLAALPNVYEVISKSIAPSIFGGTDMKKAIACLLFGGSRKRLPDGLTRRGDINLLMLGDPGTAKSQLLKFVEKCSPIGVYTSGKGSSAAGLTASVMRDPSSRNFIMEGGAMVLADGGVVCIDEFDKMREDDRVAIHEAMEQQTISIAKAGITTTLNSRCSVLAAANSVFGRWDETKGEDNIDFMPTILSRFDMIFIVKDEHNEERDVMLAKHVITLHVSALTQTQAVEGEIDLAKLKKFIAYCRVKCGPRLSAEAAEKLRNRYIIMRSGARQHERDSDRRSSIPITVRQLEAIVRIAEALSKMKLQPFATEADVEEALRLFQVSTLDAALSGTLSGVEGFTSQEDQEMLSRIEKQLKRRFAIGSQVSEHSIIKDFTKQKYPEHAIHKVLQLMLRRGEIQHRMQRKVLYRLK
Briefly: proximity ligation; HeLa cells transfected with FLAG-VEC, FLAG-MCM5 (WT) or FLAG-MCM5 (K583R), 1 h after release from double-thymidine block; PLA with CDC45. Conditions: partners not purified.

B1: GST-MCM5 (natural protein, human, UniProt P33992 1-734, looked up)
chain: T2 sequence (looked up) with R583K
notes: human MCM5 in pGEX-4T-1; the GST construct is probably the same insert; also called pGEX-4T-1 MCM5; WT GST-MCM5; source: E. coli BL21, purified (Glutathione-Sepharose 4B)
Consider B1, for which the binding result in the assay with His-UFL1 was “binds”.

B2: CDC45 (endogenous, HeLa) (natural protein, human (endogenous in HeLa), UniProt O75419 1-566, looked up)
chain: MFVSDFRKEFYEVVQSQRVLLFVASDVDALCACKILQALFQCDHVQYTLVPVSGWQELETAFLEHKEQFHYFILINCGANVDLLDILQPDEDTIFFVCDTHRPVNVVNVYNDTQIKLLIKQDDDLEVPAYEDIFRDEEEDEEHSGNDSDGSEPSEKRTRLEEEIVEQTMRRRQRREWEARRRDILFDYEQYEYHGTSSAMVMFELAWMLSKDLNDMLWWAIVGLTDQWVQDKITQMKYVTDVGVLQRHVSRHNHRNEDEENTLSVDCTRISFEYDLRLVLYQHWSLHDSLCNTSYTAARFKLWSVHGQKRLQEFLADMGLPLKQVKQKFQAMDISLKENLREMIEESANKFGMKDMRVQTFSIHFGFKHKFLASDVVFATMSLMESPEKDGSGTDHFIQALDSLSRSNLDKLYHGLELAKKQLRATQQTIASCLCTNLVISQGPFLYCSLMEGTPDVMLFSRPASLSLLSKHLLKSFVCSTKNRRCKLLPLVMAAPLSMEHGTVTVVGIPPETDSSDRKNFFGRAFEKAAESTSSRMLHNHFDLSVIELKAEDRSKFLDALISLLS
notes: CDC45 (cell division cycle 45), endogenous in HeLa; also called cell division cycle 45; source: endogenous, HeLa (fixed cells for PLA; chromatin fraction)
Take B2: the “fold decrease in PLA foci per cell against WT MCM5” value in assay [1] came to 4 fold.
